Test system: Arabidopsis thaliana T1 plants
Assay: Topramezone tolerance of transgenic Arabidopsis thaliana T1 plants (pesticide damage grade by bleached leaf area, score, resistance evaluation)
Type: in vivo
Details: HPPD F372G mutants, Table 6
In short: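 Eighteen days after sowing, wild-type and HPPD-transgenic T1 Arabidopsis receive a topramezone spray at 1×, 2× or 4× field rate (25–100 g ai/ha) or water. Seven days later each plant is graded by its proportion of bleached leaf area.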

| Molecule | Resistance evaluation (topramezone 25 g ai/ha (1x)) | Resistance evaluation (topramezone 100 g ai/ha (4x)) |
| --- | --- | --- |
| CyHPPDm-F372G: Cyanobacteria HPPD mutant F372G, SEQ ID NO: 335 (protein, CyHPPDm-F372G Amino Acid Sequence) MEFDYLHLYVDDYQSAHRCYQRQWGFTCVNKIITDQGITGIYQQGQILLLISASESSLSRYADYLQKHPPGVGEVAWQVANWQKIQHQLSELQIETTPVIHPLTKAEGLTFLLWGDVHHSIYPVRSELNQNKTLHGVGLTTIDHVVLNIAADQFTQASQWYQQVFGWSVQQSFTVNTPHSGLYSEALASANGKVQFNLNCPTNNSSQIQTFLANNHGAGIQHVAFSTTSITRTVAHLRERGVNFLKIPTGYYQQQRNSSYFNYASLDWDTLQCLEILLDDQDNTGERLLLQIGSQPCYGVGTLFWEIIERRHRAKGFGQGNFQALYEAVETLEKQLEVP | Moderately resistant | Non-resistant |
| StHPPDm-F372G: Solanum tuberosum HPPD mutant F372G, SEQ ID NO: 329 (protein, StHPPDm-F372G Amino Acid Sequence) MGKQAATATATATATADDQQLPADIEDKYKLVGFNNFVRTNPRSDLFNVKRFHHIEFWCGDATNTARRFSWGLGLPIAAKSDLSTGNSVHASYLLRSSSSQLQFLFTAPYSPAISTPSSSSIPTFSVSSHRSFTETHGLGVRAIALEVENSRLAFSTCVSHGAKPVSEPVILNDEVVISEVHLYGDVVLRFVSFLKDSNRFVFLPGFELVEGAQLDYGIRRLDHAVGNVPQLGPVVEYIKSFTGFHEFAEFTAEDVGTAESGLNSVVLANNDETVLFPLNEPVYGTKRKSQIQTYLEHNEGAGVQHLALVTEDIFRTLREMRKRSGIGGFEFMPSPPPTYYKNLKSRAGDILSDEQIKECEELGILVDRDDQGTLLQIGTKPVGDRPTIFLEIIQRIGCMLQNAEGELYQKGGCGGFGKGNFSELFKSIEEYEKTLEAKQNTQVAIA | Poorly resistant | Non-resistant |
| S1HPPDm-F372G: Solanum lycopersicum HPPD mutant F372G, SEQ ID NO: 331 (protein, SlHPPDm-F372G Amino Acid Sequence) MGKQAAAAADDQQLPGDIEDKFKLVGFNHFVRTNPRSDFFTVKRFHHIEFWCGDATNTARRFSWGLGLPIAAISDLSTGNSVHASYLLRSSSSSQLQFLFTAPYSSAISTSSSASIPTFSVSSHRSFTATHGLGVRAIALEVENSRLAFSTCVAHGAKPVSEPVILNDEVVIAEVHLYGDVVLRFVSFLKDSNCFVFLPGFESVEGAQLDYGIRRLDHAVGNVPELGPVVEYIKSFTGFHEFAEFTAEDVGTAESGLNSVVLANNDETVLFPLNEPVYGTKRKSQIQTYLEHNEGAGVQHLALVTEDIFRTLREMRKRSGIGGFEFMPSPPPTYYKNLKTRAGDILSDEQIQECEELGILVDRDDQGTLLQIGTKPVGDRPTIFLEIIQRIGCMLKNEEGELYQKGGCGGFGKGNFSELFKSIEEYEKTLEAKQNTQVAIA | Poorly resistant | Non-resistant |
| NtHPPDm-F372G: Nicotiana tabacum HPPD mutant F372G, SEQ ID NO: 325 (protein, NtHPPDm-F372G Amino Acid Sequence) MGKLETVTTTSAAAADDSSELTTNFKLVGFKNFIRTNPRSDFFSVKSFHHIEFWCGDATNTARRFSWSLGMPIAAKSDLSTGNSVHASYLLRPVSGSLQFLFTAPYSPSISTPSSAAIPSFSTSTHRSFTTTHGLGVRAVALEVENAYTAFSASVSRGAKPMFEPVTIDEQVAMAEVHLYGDVVLRFVSYLKDADNLVFLPGFEAMDETASYKELDYGIRRLDHAVGNVPELGPVVDYIKRFTGFHEFAEFTAEDVGTAESGLNSMVLANNDETVLLPLNEPVYGTKRKSQIQTYLEHNEGAGVQHLALVTEDIFKTLTEMRKRSGVGGFEFMPSPPPTYYKNLKNRAGDVLSDEQILACEELGILVDRDDQGTLLQIGTKPVGDRPTIFIEIIQRIGCMLKDGKGQVYQKGGCGGFGKGNFSELFRSIEEYEKTLEAKQANQVAAA | Poorly resistant | Non-resistant |
| ZmHPPDm-F372G: Zea mays HPPD mutant F372G, SEQ ID NO: 295 (protein, ZmHPPDm-F372G Amino Acid Sequence) MPPTPTAAAAGAAVAAASAAEQAAFRLVGHRNFVRFNPRSDRFHTLAFHHVELWCADAASAAGRFSFGLGAPLAARSDLSTGNSAHASLLLRSGSLSFLFTAPYAHGADAATAALPSFSAAAARRFAADHGLAVRAVALRVADAEEAFRTSVAAGARPAFGPVDLGRGFRLAEVELYGDVVLRYVSYPDGAAGEPFLPGFEGVASPGAADYGLSRFDHIVGNVPELAPAAAYFAGFTGFHEFAEFTTEDVGTAESGLNSMVLANNSENVLLPLNEPVHGTKRRSQIQTFLDHHGGPGVQHMALASDDVLRTLREMQARSAMGGFEFMAPPTSDYYDGVRRRAGDVLTEAQIKECQELGVLVDRDDQGVLLQIGPKPVGDRPTLFLEIIQRIGCMERDEKGQEYQKGGCGGFGKGNFSQLFKSIEDYEKSLEAMQAAAAATAQGS | Highly resistant | Moderately resistant |
| N3HPPDm-F372G: Burkholderia sp. N3 HPPD mutant F372G, SEQ ID NO: 341 (protein, N3HPPDm-F372G Amino Acid Sequence) MQIPNWENPVGTDGFEFIEYTAPDPKALGQLFERMGFTAIARHRHKDVTVYRQGDINFIINAEPHSFAQRFARLHGPSICAIAFRVQDAAKAYQHALELGAWGFDNKTGPMELNIPAIKGIGDSLIYFVDRWRGKNGAQPGAIGDISIYDVDFEPIAGANPNPAGHGLTYIDHLTHNVHRGRMQEWAEFYERLFNFREVRYFDIEGKVTGVKSKAMTSPCGKIRIPINEEGSDTAGQIQEYLDAYHGEGIQHIALGTNDIYGAVDGLRGKEVKLLDTIDTYYELVDRRVPDHGESLDELKKRKILIDGARDDLLLQIGTENQIGPIFFEIIQRKGNQGFGEGNFKALFESIELDQIRRGVVQDKA | Highly resistant | Highly resistant |
| CsHPPDm-F372G: Cucumis sativus HPPD mutant F372G, SEQ ID NO: 327 (protein, CsHPPDm-F372G Amino Acid Sequence) MGKEADFPRAPSEATDGGATASQSEFELQGFDNFIRTNPKSDRFKVKRFHHIEFWCTDATNVARRFSWGLGMQIVAKSDLSTGNMTHASYLLRSGHLCFLFTAPYSPSIAAAQNLTPASTASIPSFDHSVCRSFSGTHGFGARAIALEVEDAEIAFRTSVAHGAKPSCPPIVLENRAVLSEVHLYGDVVLRYISYKNPVSGDNGENKPDEWFLPKFEAMEETASFPLDFGIRRLDHAVGNVPELGPAVSYLKGFTGFHEFAEFTAEDVGTSESGLNSMVLANNEEMVLLPINEPVFGTKRKSQIQTYLEHNEGAGVQHLALMSEDIFRTLREMRKRSSVGGFEFMPSPPPTYYKNLKSRAGDVLTDEQIKECEELGILVDKDDQGTLLQIGTKPVGDRPTIFIEIIQRLGCMMKDEEGKAFQKGGCGGFGKGNFSELFKSIEEYEKTLEAKRVSE | Poorly resistant | Non-resistant |
| AhHPPDm-F372G: Arachis hypogaea HPPD mutant F372G, SEQ ID NO: 333 (protein, AhHPPDm-F372G Amino Acid Sequence) MATAYTYAHAVTYCNSQHNPPIIPILSTNQHPPRVTLPSSIPHFISTITTFNLKHFPSHSLHTVMVTQTQQNAPSSSPELGFKLVGFKNFVRTNPKSDRFKVIRFHHVEFWCTDATNTASRFSWGLGMPIVAKSDLSTGNAVHASYLLRSGDLNFLFSAPYSASIAGDGASASFPSFSASDCHSFAAKHGLAVRAVAIEVEDASAAFSASVANGAKPVSPAVLLDNSVGFAEVHLYGDVVLRYISYSAPTRESNLNPTLRFLPGFEAVEADSSFPELDYGIRRLDHAVGNVPELAPAVNYLKKFTGFHEFAEFTAEDVGTSESGLNSVVLASNDEMVLLPLNEPVYGTKRKSQIETYLEHNEGAGLQHLALVSEDIFRTLREMRKRSTIGGFQFMPSPPPTYYRNLKKRAGDVLSDEQIKECEELGILVDRDDQGTLLQIGTKPVGDRPTIFIEIIQRIGCMLKDEEGKVYQKGGCGGFGKGNFSELFKSIEEYEKTLESRRTA | Poorly resistant | Non-resistant |
| N2HPPDm-F372G: Sphingobium sp. N2 HPPD mutant F372G, SEQ ID NO: 339 (protein, N2HPPDm-F372G Amino Acid Sequence) MTLFDNPLGLDGFEFVEFSAPAKGMLEPVFAAMGFVMIARHRSKDVQLWRQGGINLIANYEPRSPAAYFAAEHGPSACGMGWRVRNAAKAYELAVERGAEPVDVKTGPMELRLPAIRGIGGSIIYLIDRYEDEDGGLSIYDIDFVYEPGVDRHPEGAGFKIIDHLTHNVYGGRMAHWASFYERVFGFREIRYFDIKGEYTGLTSKAMTAPDGKIRIPLNEEGKAGGGQIEEFLRAYNGEGIQHIAFLCDDLIAAWDKLKALGTPLMTAPPATYYEMLDERLPGHGEPVAELQKRGILLDGSTQQGDPRLLLQIGGQATIGPVFFEFIQRKKDEGFGEGNFTALFESMERDQLRRGTLNAGESA | Highly resistant | Highly resistant |
| N1HPPDm-F372G: Sphingobium sp. N1 HPPD mutant F372G, SEQ ID NO: 337 (protein, N1HPPDm-F372G Amino Acid Sequence) MAADSENPLGLHGFAFAEFTSPDPAAMARQFEQLGFVPAARRKDRGLTLYRQGRIAFILNAGEGEQASAFRAAHGPSANGMAFNVADAKAAHRHAIQSGATDADTAQSALPGTYAIEGIGDSLLYLVDSDPFADWDEVPGWREASAERGVGLDLLDHLTHNVRRGQMRVWSEFYATLFGFEEQKFFDIKGQATGLFSQAMIAPDHEIRIPLNESQDDNSQIEEFIREYNGEGIQHLALTTPDIYSTVEKLRANGVRLQDTIDTYYDLVDERVPGHGEDLARLRKNRILIDGDVHDEGLLLQIGTETMFGPIFFEIIQRKGNEGFGNGNFQVLYESIELDQIRRGVVTVDA | Highly resistant | Highly resistant |
